Source: the supplement of paper PMC7125110
± gives the standard error. This sample holds only a part of the variants without activity.

B1: glmS ribozyme (parent)
chain: AUAAAAGCGCCAGAACUACAGAAAUGUAGUUGACGAGGAGGAGGUUUAUCGAAUUUUCGGCGGAUGCCUCCAAA

Legend:
Settings in all cases: with glucosamine-6-phosphate
glucosamine-6-phosphate [1] = variants of: B1; assay: self-cleavage kobs at 40 uM GlcN6P; higher = faster cleavage; RNA array
How it was run: (§1)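 Barcoded ribozyme variants on sequenced MiSeq chips were transcribed in situ by E. coli RNA polymerase and followed at 37 °C through a hybridised Cy3 probe. Glucosamine-6-phosphate at 40 μM to 10 mM in HEPES/KCl/Mg(OAc)2 buffer was flowed in, and tiles were imaged over ~14 h. Signals were normalised to baseline and to non-cleaving reference variants, and per-tile medians were fit to one- or two-exponential decays to give kobs. Weighted Michaelis–Menten fits across concentrations gave kcat and KM.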

glucosamine-6-phosphate [2] = variants of: B1; assay: self-cleavage kobs at 640 uM GlcN6P; higher = faster cleavage; RNA array
How it was run: as §1

glucosamine-6-phosphate [3] = variants of: B1; assay: self-cleavage kobs at 2500 uM GlcN6P; higher = faster cleavage; RNA array
How it was run: as §1

glucosamine-6-phosphate [4] = variants of: B1; assay: self-cleavage kobs at 10000 uM GlcN6P; higher = faster cleavage; RNA array
How it was run: as §1

glucosamine-6-phosphate [5] = variants of: B1; assay: self-cleavage kobs at 160 uM GlcN6P; higher = faster cleavage; RNA array
How it was run: as §1

Variant	self-cleavage kobs at 40 uM GlcN6P (glucosamine-6-phosphate [1])	self-cleavage kobs at 640 uM GlcN6P (glucosamine-6-phosphate [2])	self-cleavage kobs at 2500 uM GlcN6P (glucosamine-6-phosphate [3])	self-cleavage kobs at 10000 uM GlcN6P (glucosamine-6-phosphate [4])	self-cleavage kobs at 160 uM GlcN6P (glucosamine-6-phosphate [5])
AUAAAAGCGCCAGAAGUACAGAAAUGUAGUUGACCAGGAGGAGGUUUAUCGAAUUUUCGGCGGAUGCCUCCAAA	< 1e-05 s⁻¹	< 1e-05 s⁻¹	< 1e-05 s⁻¹	< 1e-05 s⁻¹	–
AUAAAAGCGCCAGAACUACAGAAAUGUAGUUGACGAGGAGGAGGUUUAUCGAAUAUUCGGCGGAUGGCUCCAAA	0.000126 ± 3.4e-05 s⁻¹	0.000179 ± 2.8e-05 s⁻¹	0.00013 ± 2e-05 s⁻¹	0.00061 ± 0.00014 s⁻¹	0.000104 ± 2.1e-05 s⁻¹
AUAAAAGCGCCAGAACUACAGAAAUGUAGUUGACGAGGAGGGGGUUUAUCGAAUUUUCGGCGUAUGCCUCCAAA	< 1e-05 s⁻¹	< 1e-05 s⁻¹	< 1e-05 s⁻¹	–	< 1e-05 s⁻¹
AUAAAAGCGCCAGAACUACAGAAAUGUAGUUGACGACGAGGAGGUCUAUCGAAUUUUCGGCGGAUGCCUCCAAA	< 1e-05 s⁻¹	–	–	–	–
AUAAAAGCGCCAGAACUACAGAAAUGUAGUUGACGAGGAGGAGGUUUAUCGAAUGUUCGGCGGAUGCUUCCAAA	0.000294 ± 3.6e-05 s⁻¹	0.00158 ± 0.00035 s⁻¹	0.000382 ± 8.7e-05 s⁻¹	0.00508 ± 0.00094 s⁻¹	0.00035 ± 8.1e-05 s⁻¹
AUAAAAGCGCCAGAACUACAGAAAUGUAGUUGACGAGUAGGAGGUUUAUCGAAUUUUCGGCGGAUGCCUUGAAA	8.76e-05 ± 2.7e-05 s⁻¹	–	–	–	–
AUAAAAGCGCCAUAACUACAGAAAUGUAGUUGACGAGGAGGCGGUUUAUCGACUUUUCGGCGGAUGCAUCCAAA	< 1e-05 s⁻¹	–	–	–	–
AUAAAAGCGCCUGAACUACAGAAAUGUAGUUGACGAGGAGGAGGUUUAUCGAAUUUUCGGCUGAUGCCUUCAAA	< 1e-05 s⁻¹	–	–	< 1e-05 s⁻¹	–
AUAAAUGCGCCAGAACUACAGAAAUGUAGUUCACGAGGAGGAGGUUUAUCGAAUUUUCGGCGGAUGCCUCCAAA	< 1e-05 s⁻¹	< 1e-05 s⁻¹	< 1e-05 s⁻¹	–	< 1e-05 s⁻¹
AUAAAAGCGCCAGAACUACAGAAAUGUACUUGACGAGGAGGAUGUUUAUCGAAUUUUCGGCGGAUGUCUCCAAA	< 1e-05 s⁻¹	–	–	< 1e-05 s⁻¹	–
AUAAAAGCGCCAGAACUACAGAAAUGUAGUUGACGAGGAGGAGGUUUAUCGAAUUUUCGGCCAAUGCCUCCAAA	< 1e-05 s⁻¹	< 1e-05 s⁻¹	< 1e-05 s⁻¹	–	< 1e-05 s⁻¹
AUAAAACCGCCAGAACUACAGAAAUGUAGUUGACGAGGAGGGGGUUUAUCGAAUUUUCGGCGGAUGCCUCCAAA	< 1e-05 s⁻¹	< 1e-05 s⁻¹	< 1e-05 s⁻¹	< 1e-05 s⁻¹	< 1e-05 s⁻¹
AUAAAAGCGCCAGAACUACAGAAAUGUAGUUGACGAGGAGGAGGUUUCUCGAAUUUUCUGCGGAUGACUCCAAA	< 1e-05 s⁻¹	–	–	–	–
